From doi:10.1101/2021.02.24.432656 (bioRxiv, 2021) come the findings set out here.

In this assay the target is Flag-importin α1 (human, UniProt P52292 1-529). Description: pull-down.

B1: GST-GFP fused ORF6 full-length protein (natural protein)
chain: MFHLVDFQVTIAEILLIIMRTFKVSIWNLDYIINLIIKNLSKSLTENKYSQLDEEQPMEID
Consider B1, for which the binding result is on record as “binds”.
